In one assay the target is Aβ3pE-42 (pyroglutamate (pE) at the N-terminus, residue 3 of Aβ). As to the kind of experiment: sandwich ELISA, BAMB31_1 coated, HRPO-labeled C-terminal antibody for detection. In general terms: In an ELISA, binding on a coated surface is turned into a signal by an enzyme label.
The next assay concerns the target human Aβ1-42 (human). As to the kind of experiment: sandwich ELISA, BAMB31_1 coated, JRF/cAβ42/26-HRPO detection.
In the next assay the target is T1, AβpE11-42 (human, pyroglutamate (pE) at the N-terminus, residue 11 of Aβ).
T1 construct: also called Aβ11pE-42
T1 peptide: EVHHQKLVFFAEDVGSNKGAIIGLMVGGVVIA
The assay is described as above.

The next assay addresses T2, rodent Aβ3pE-40 (rodent, pyroglutamate (pE) at the N-terminus, residue 3 of Aβ).
T2 peptide: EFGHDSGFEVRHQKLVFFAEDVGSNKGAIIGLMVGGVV
As to the kind of experiment: sandwich ELISA, BAMB31_1 coated, JRF/cAβ40/28-HRPO detection.

The next assay addresses T3, human AβpE11-40 (human, pyroglutamate (pE) at the N-terminus, residue 11 of Aβ).
T3 construct: also called Aβ11pE-40
T3 peptide: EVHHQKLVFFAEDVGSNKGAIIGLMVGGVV
The assay is described as above.

Assay [1] addresses human Aβ1-40 peptide (human). The assay is described as above.
For a further assay, the target named is human Aβ 3pE-40 peptide (human, pyroglutamate (pE) at the N-terminus, residue 3 of Aβ). As to the kind of experiment: SPR (Biacore T200), antibody captured by anti-mouse antibody on CM5, peptide injected, 1:1 fit; mean. (In general: SPR reads the build-up and loss of mass on a sensor chip optically.)
Sequence of human Aβ 3pE-40 peptide (human, pyroglutamate (pE) at the N-terminus, residue 3 of Aβ) (peptide, as listed by the source): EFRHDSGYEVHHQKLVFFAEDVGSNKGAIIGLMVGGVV
The target in the next assay is human Aβ 3pE-28 peptide (human, pyroglutamate (pE) at the N-terminus, residue 3 of Aβ). Briefly: SPR, antibody captured on anti-human or anti-mouse Ig chip, peptide injected, 1:1 fit; N=1.
Sequence of human Aβ 3pE-28 peptide (human, pyroglutamate (pE) at the N-terminus, residue 3 of Aβ) (peptide, as listed by the source): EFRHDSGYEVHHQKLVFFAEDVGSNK
Assay [2] deals with human Aβ1-40 peptide (human). As to the kind of experiment: SPR (Biacore T200), antibody captured, peptide injected.
Target sequence in this assay (peptide, as listed by the source): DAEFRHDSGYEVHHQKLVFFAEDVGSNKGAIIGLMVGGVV

B1: BAMB31_1 (antibody, mouse IgG1, V domains shown)
VH: EIQLQQSGPELVKPGTSVKVSCKASGHVFTSYDMYWVKQSHGKSLEWIGYIDSDNGDTSYNQKFKGKATLTVDKSSSTAYMHLNSLTSEDSAVYYCAYYRYAMDYWGQGTSVTVSS
VL: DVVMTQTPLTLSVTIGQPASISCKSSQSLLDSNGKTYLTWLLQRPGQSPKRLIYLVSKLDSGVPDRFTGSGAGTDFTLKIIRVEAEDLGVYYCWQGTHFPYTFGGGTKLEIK
notes: Hybridoma antibody
As for B1, the binding result with Aβ3pE-42 is “binds”; with human Aβ1-42, “no binding (tested: 10 ng/mL)”; in the assay with AβpE11-42, “no binding (tested: 10 ng/mL)”; with rodent Aβ3pE-40, “no binding (tested: 10 ng/mL)”; in the assay with human AβpE11-40 it was “no binding (tested: 10 ng/mL)”; with human Aβ1-40 peptide [1], “no binding (tested: 10 ng/mL)”.

B2: BAMB31_2a (mIgG2a) (antibody)
heavy: EIQLQQSGPELVKPGTSVKVSCKASGHVFTSYDMYWVKQSHGKSLEWIGYIDSDNGDTSYNQKFKGKATLTVDKSSSTAYMHLNSLTSEDSAVYYCAYYRYAMDYWGQGTSVTVSSAKTTAPSVYPLAPVCGDTTGSSVTLGCLVKGYFPEPVTLTWNSGSLSSGVHTFPAVLQSDLYTLSSSVTVTSSTWPSQSITCNVAHPASSTKVDKKIEPRGPTIKPCPPCKCPAPNLLGGPSVFIFPPKIKDVLMISLSPIVTCVVVDVSEDDPDVQISWFVNNVEVHTAQTQTHREDYNSTLRVVSALPIQHQDWMSGKEFKCKVNNKDLPAPIERTISKPKGSVRAPQVYVLPPPEEEMTKKQVTLTCMVTDFMPEDIYVEWTNNGKTELNYKNTEPVLDSDGSYFMYSKLRVEKKNWVERNSYSCSVVHEGLHNHHTTKSFSRTPGK
light: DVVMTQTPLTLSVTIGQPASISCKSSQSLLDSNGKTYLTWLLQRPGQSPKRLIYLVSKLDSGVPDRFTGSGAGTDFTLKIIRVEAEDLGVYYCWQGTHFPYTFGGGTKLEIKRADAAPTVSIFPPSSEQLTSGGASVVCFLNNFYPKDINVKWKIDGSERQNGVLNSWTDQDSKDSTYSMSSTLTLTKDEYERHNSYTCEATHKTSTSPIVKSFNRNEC
notes: BAMB31 V regions on murine IgG2a; also called BAMB31 (mIgG2a); mIgG2a parent
Take B2: in the assay with human Aβ 3pE-40 peptide, the affinity, expressed as Kd, was 0.053 nM; the koff (usually the rate constant with which the complex falls apart) was 4.94e-05 s⁻¹; the kon (as a rule, a measure of how fast the partners come together) turned out to be 930000 M⁻¹ s⁻¹. For the same molecule, in the assay with human Aβ 3pE-28 peptide, the Kd (as a rule, the equilibrium constant for the complex coming apart) turned out to be 0.0275 nM; the koff amounted to 7.97e-05 s⁻¹; the kon worked out at 2.89e+06 M⁻¹ s⁻¹. Also, the binding result with human Aβ1-40 peptide [2] is recorded as “no binding (tested: 50 nM)”.

(Values after patent publication US20220177560A1 (Janssen / Centocor, published 2022).)
